{"source": "patent US20030064482A1", "key": {"GIT mucin [1]": {"target": "GIT mucin", "assay": "specificity/enzyme activity assay, GIT mucin-coated plate (negative control), substrate in PBS pH 7.2; supernatant concentrated"}, "[2]": {"target": "CEA (carcinoembryonic antigen) (UniProt P06731)", "sequence (P06731 35-685 limits assumed)": "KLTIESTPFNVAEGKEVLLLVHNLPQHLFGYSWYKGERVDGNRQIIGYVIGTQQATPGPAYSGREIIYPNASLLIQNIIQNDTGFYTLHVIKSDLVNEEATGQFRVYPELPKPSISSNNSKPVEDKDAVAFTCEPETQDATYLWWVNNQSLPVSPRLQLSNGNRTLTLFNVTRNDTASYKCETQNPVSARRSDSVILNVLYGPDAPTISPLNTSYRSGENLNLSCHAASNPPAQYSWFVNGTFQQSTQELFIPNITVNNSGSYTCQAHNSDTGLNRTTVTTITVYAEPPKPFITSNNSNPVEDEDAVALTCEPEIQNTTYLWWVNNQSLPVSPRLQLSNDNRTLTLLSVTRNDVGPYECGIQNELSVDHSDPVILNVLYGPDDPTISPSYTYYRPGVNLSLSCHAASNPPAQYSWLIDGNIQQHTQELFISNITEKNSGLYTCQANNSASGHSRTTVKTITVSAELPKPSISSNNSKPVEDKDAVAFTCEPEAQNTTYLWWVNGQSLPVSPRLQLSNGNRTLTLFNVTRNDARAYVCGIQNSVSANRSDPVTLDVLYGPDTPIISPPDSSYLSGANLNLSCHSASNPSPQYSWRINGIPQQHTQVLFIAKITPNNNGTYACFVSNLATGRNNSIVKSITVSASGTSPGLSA", "assay": "specificity/enzyme activity assay, CEA-coated plate, substrate in PBS pH 7.2; supernatant diluted 1:128"}, "[3]": {"target": "CEA (carcinoembryonic antigen) (UniProt P06731)", "assay": "specificity/enzyme activity assay, CEA-coated plate, substrate in 0.2 M sodium acetate buffer + 0.01% BSA pH 5; supernatant diluted 1:8"}, "GIT mucin [4]": {"target": "GIT mucin", "assay": "specificity/enzyme activity assay, GIT mucin-coated plate (negative control), substrate in PBS pH 7.2; supernatant diluted 1:4"}, "[5]": {"target": "CEA (carcinoembryonic antigen) (UniProt P06731)", "assay": "specificity/enzyme activity assay, CEA-coated plate, substrate in 0.2 M sodium acetate buffer + 0.01% BSA pH 5; supernatant diluted 1:4"}, "GIT mucin [6]": {"target": "GIT mucin", "assay": "specificity/enzyme activity assay, GIT mucin-coated plate (negative control), substrate in PBS pH 7.2; supernatant diluted 1:16"}, "[7]": {"target": "CEA (carcinoembryonic antigen) (UniProt P06731)", "assay": "specificity/enzyme activity assay, CEA-coated plate, substrate in PBS pH 7.2; supernatant diluted 1:4"}, "[8]": {"target": "CEA (carcinoembryonic antigen) (UniProt P06731)", "assay": "specificity/enzyme activity assay, CEA-coated plate, substrate in 0.2 M sodium acetate buffer + 0.01% BSA pH 5; supernatant diluted 1:32"}, "GIT mucin [9]": {"target": "GIT mucin", "assay": "specificity/enzyme activity assay, GIT mucin-coated plate (negative control), substrate in PBS pH 7.2; supernatant diluted 1:32"}, "[10]": {"target": "CEA (carcinoembryonic antigen) (UniProt P06731)", "assay": "specificity/enzyme activity assay, CEA-coated plate, substrate in 0.2 M sodium acetate buffer + 0.01% BSA pH 5; supernatant diluted 1:2"}, "[11]": {"target": "CEA (carcinoembryonic antigen) (UniProt P06731)", "assay": "specificity/enzyme activity assay, CEA-coated plate, substrate in 0.2 M sodium acetate buffer + 0.01% BSA pH 5; supernatant diluted 1:64"}, "[12]": {"target": "CEA (carcinoembryonic antigen) (UniProt P06731)", "assay": "specificity/enzyme activity assay, CEA-coated plate, substrate in 0.2 M sodium acetate buffer + 0.01% BSA pH 5; supernatant diluted 1:128"}, "[13]": {"target": "CEA (carcinoembryonic antigen) (UniProt P06731)", "assay": "competitive ELISA on CEA-coated plates; competitor murine MAb BW 431/26 at 5 ng/ml, detected with goat anti-mouse Ig-alkaline phosphatase"}, "[14]": {"target": "CEA (carcinoembryonic antigen) (UniProt P06731)", "assay": "specificity/enzyme activity assay, CEA-coated plate, substrate in 0.2 M sodium acetate buffer + 0.01% BSA pH 5; supernatant concentrated"}, "[15]": {"target": "CEA (carcinoembryonic antigen) (UniProt P06731)", "assay": "specificity/enzyme activity assay, CEA-coated plate, substrate in PBS pH 7.2; supernatant concentrated"}, "[16]": {"target": "CEA (carcinoembryonic antigen) (UniProt P06731)", "assay": "specificity/enzyme activity assay, CEA-coated plate, substrate in PBS pH 7.2; supernatant diluted 1:8"}, "GIT mucin [17]": {"target": "GIT mucin", "assay": "specificity/enzyme activity assay, GIT mucin-coated plate (negative control), substrate in PBS pH 7.2; supernatant diluted 1:8"}, "GIT mucin [18]": {"target": "GIT mucin", "assay": "specificity/enzyme activity assay, GIT mucin-coated plate (negative control), substrate in PBS pH 7.2; supernatant diluted 1:128"}, "GIT mucin [19]": {"target": "GIT mucin", "assay": "specificity/enzyme activity assay, GIT mucin-coated plate (negative control), substrate in PBS pH 7.2; supernatant diluted 1:2"}, "[20]": {"target": "CEA (carcinoembryonic antigen) (UniProt P06731)", "assay": "specificity/enzyme activity assay, CEA-coated plate, substrate in PBS pH 7.2; supernatant diluted 1:2"}, "GIT mucin [21]": {"target": "GIT mucin", "assay": "specificity/enzyme activity assay, GIT mucin-coated plate (negative control), substrate in PBS pH 7.2; supernatant diluted 1:64"}, "[22]": {"target": "CEA (carcinoembryonic antigen) (UniProt P06731)", "assay": "specificity/enzyme activity assay, CEA-coated plate, substrate in PBS pH 7.2; supernatant diluted 1:64"}, "[23]": {"target": "CEA (carcinoembryonic antigen) (UniProt P06731)", "assay": "specificity/enzyme activity assay, CEA-coated plate, substrate in PBS pH 7.2; supernatant diluted 1:32"}, "[24]": {"target": "CEA (carcinoembryonic antigen) (UniProt P06731)", "assay": "specificity/enzyme activity assay, CEA-coated plate, substrate in PBS pH 7.2; supernatant diluted 1:16"}, "[25]": {"target": "CEA (carcinoembryonic antigen) (UniProt P06731)", "assay": "specificity/enzyme activity assay, CEA-coated plate, substrate in 0.2 M sodium acetate buffer + 0.01% BSA pH 5; supernatant diluted 1:16"}}, "data": [{"substance": "431/26 hum VH huβGlc 1H fusion protein (from UniProt P01860 1-98; P01860 99-115; P08236 23-651)", "values": [{"measurement": "fluorescence of 4-methylumbelliferol liberated by plate-bound fusion protein", "setting": "GIT mucin [1]", "result": 116}, {"measurement": "fluorescence of 4-methylumbelliferol liberated by plate-bound fusion protein", "setting": "[2]", "result": 57.9}, {"measurement": "fluorescence of 4-methylumbelliferol liberated by plate-bound fusion protein", "setting": "[3]", "result": 2930}, {"measurement": "fluorescence of 4-methylumbelliferol liberated by plate-bound fusion protein", "setting": "GIT mucin [4]", "result": 73.4}, {"measurement": "fluorescence of 4-methylumbelliferol liberated by plate-bound fusion protein", "setting": "[5]", "result": 4660}, {"measurement": "fluorescence of 4-methylumbelliferol liberated by plate-bound fusion protein", "setting": "GIT mucin [6]", "result": 53.7}, {"measurement": "fluorescence of 4-methylumbelliferol liberated by plate-bound fusion protein", "setting": "[7]", "result": 1200}, {"measurement": "fluorescence of 4-methylumbelliferol liberated by plate-bound fusion protein", "setting": "[8]", "result": 853}, {"measurement": "fluorescence of 4-methylumbelliferol liberated by plate-bound fusion protein", "setting": "GIT mucin [9]", "result": 40.4}, {"measurement": "fluorescence of 4-methylumbelliferol liberated by plate-bound fusion protein", "setting": "[10]", "result": 7680}, {"measurement": "fluorescence of 4-methylumbelliferol liberated by plate-bound fusion protein", "setting": "[11]", "result": 425}, {"measurement": "fluorescence of 4-methylumbelliferol liberated by plate-bound fusion protein", "setting": "[12]", "result": 192}, {"measurement": "molar excess of competitor at 50% inhibition", "setting": "[13]", "result": 200, "unit": "molar excess"}, {"measurement": "fluorescence of 4-methylumbelliferol liberated by plate-bound fusion protein", "setting": "[14]", "result": 9120}, {"measurement": "fluorescence of 4-methylumbelliferol liberated by plate-bound fusion protein", "setting": "[15]", "result": 2720}, {"measurement": "fluorescence of 4-methylumbelliferol liberated by plate-bound fusion protein", "setting": "[16]", "result": 618}, {"measurement": "fluorescence of 4-methylumbelliferol liberated by plate-bound fusion protein", "setting": "GIT mucin [17]", "result": 60.7}, {"measurement": "fluorescence of 4-methylumbelliferol liberated by plate-bound fusion protein", "setting": "GIT mucin [18]", "result": 47.5}, {"measurement": "fluorescence of 4-methylumbelliferol liberated by plate-bound fusion protein", "setting": "GIT mucin [19]", "result": 93.4}, {"measurement": "fluorescence of 4-methylumbelliferol liberated by plate-bound fusion protein", "setting": "[20]", "result": 2140}, {"measurement": "fluorescence of 4-methylumbelliferol liberated by plate-bound fusion protein", "setting": "GIT mucin [21]", "result": 48.2}, {"measurement": "fluorescence of 4-methylumbelliferol liberated by plate-bound fusion protein", "setting": "[22]", "result": 99.3}, {"measurement": "fluorescence of 4-methylumbelliferol liberated by plate-bound fusion protein", "setting": "[23]", "result": 168}, {"measurement": "fluorescence of 4-methylumbelliferol liberated by plate-bound fusion protein", "setting": "[24]", "result": 332}, {"measurement": "fluorescence of 4-methylumbelliferol liberated by plate-bound fusion protein", "setting": "[25]", "result": 1660}]}, {"substance": "humanized MAb BW 431/26 (antibody)", "values": [{"measurement": "molar excess of competitor at 50% inhibition", "setting": "[13]", "result": 200, "unit": "molar excess"}]}]}
